# Results reported in patent publication CN110964111A (BEIJING DONGFANG BIOTECH CO LTD, dated 2020).
# Where a chain is given by its changes, count along the chain named.
# B1: BH2-B11 全抗体 (full antibody, human IgG1/kappa) (antibody, V domains shown)
# VH: EVQLVESGGGLVQPGGSLRLSCAASGLTWSDSYKHWVRQAPGKGLEWVHWNSTYGGSTYYADSVKGRFTISADTSKNTAYLQMNSLRAEDTAVYYCARRHFASTWDYWGQGTLVTVSS
# VL: DIQMTQSPSSLSASVGDRVTITCRASQNIHNSLAWYQQKPGKAPKLLIYGASSLESGVPSRFSGSGSGTDFTLTISSLQPEDFATYYCQQERRVPWTFGQGTKVEIKR
# B2: AC9-B11 全抗体 (full antibody, human IgG1/kappa) (antibody, V domains shown)
# VH: B1 VH with L27C, Y33W, K34D, H49D, W50Y, N51E, F101W, A102N, S103A, W105F
# VL: B1 VL
# B3: AH10-B11 全抗体 (full antibody, human IgG1/kappa) (antibody, V domains shown)
# VH: EVQLVESGGGLVQPGGSLRLSCAASGWTLSDSLQHWVRQAPGKGLEWVGFQSAYGGSTYYADSVKGRFTISADTSKNTAYLQMNSLRAEDTAVYYCARRHYYTAWDYWGQGTLVTVSS
# VL: B1 VL
# B4: BH2-E3 全抗体 (full antibody, human IgG1/kappa) (antibody, V domains shown)
# VH: B1 VH
# VL: B1 VL with N28S, S32Y, G50S, S53N, E55P, E91G, R92L, R93H, V94T, W96P
# B5: AH10-E3 全抗体 (full antibody, human IgG1/kappa) (antibody, V domains shown)
# VH: B3 VH
# VL: B1 VL with N28S, S32Y, G50S, S53N, E55P, E91G, R92L, R93H, V94T, W96P
# B6: AC9-E3 全抗体 (full antibody, human IgG1/kappa) (antibody, V domains shown)
# VH: B1 VH with L27C, Y33W, K34D, H49D, W50Y, N51E, F101W, A102N, S103A, W105F
# VL: B1 VL with N28S, S32Y, G50S, S53N, E55P, E91G, R92L, R93H, V94T, W96P
# Molecular target: PD-L1 (UniProt Q9NZQ7 19-238, limits assumed)
# Sequence (Q9NZQ7 19-238 limits assumed): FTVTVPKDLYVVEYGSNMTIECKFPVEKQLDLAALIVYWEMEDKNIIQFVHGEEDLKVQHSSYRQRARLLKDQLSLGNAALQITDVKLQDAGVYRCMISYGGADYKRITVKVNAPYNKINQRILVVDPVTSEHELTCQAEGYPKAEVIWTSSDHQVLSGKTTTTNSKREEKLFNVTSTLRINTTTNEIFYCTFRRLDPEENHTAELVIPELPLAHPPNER
# Experiment: cell-based or functional assay
row,Binder,"EC50, CD4+ T细胞增殖 (混合淋巴细胞反应 MLR, cck8)"
1,B1,6.73 ng/mL
2,B2,7.58 ng/mL
3,B3,9.88 ng/mL
4,B4,7.71 ng/mL
5,B5,11.4 ng/mL
6,B6,11.9 ng/mL
